Test results reported in patent EP4435012A1 (Juventus Cell Therapy Ltd., dated 2024).

B1: BY-01G CAR (on BCMA CAR-T cell BY-01G) (other)
chain: EIVMTQSPSTLSASVGDRVIITCQASENIYRNLAWYQQKPGKAPKLLIYAASLLASGVPSRFSGSGSGAEFTLTISSLQPDDFATYYCQNAFYSSSADNPFGQGTKLTVLGGGGSGGGGSGGGGSEVQLVESGGGLVQPGGSLRLSCTASGFSLSSYAMSWVRQAPGKGLEWIGMISSSGSTHYASWAKGRFTISRDTSKNTVYLQMNSLRAEDTAVYYCARDFYVYSSGTYLEYGMDLWGQGTLVTVSSTTTPAPRPPTPAPTIASQPLSLRPEACRPAAGGAVHTRGLDFACDIYIWAPLAGTCGVLLLSLVITLYCKRGRKKLLYIFKQPFMRPVQTTQEEDGCSCRFPEEEEGGCELRVKFSRSADAPAYQQGQNQLYNELNLGRREEYDVLDKRRGRDPEMGGKPRRKNPQEGLYNELQKDKMAEAYSEIGMKGERRRGKGHDGLYQGLSTATKDTYDALHMQALPPR
B2: BY-04G CAR (on BCMA CAR-T cell BY-04G) (other)
chain: EIVMTQSPSTLSASVGDRVIINCQASQSVFSNNYLAWYQQKPGKAPKLLIYRASNLASGVPSRFSGSGSGAEFTLTISSLQPDDFATYYCQPTYLSGDWYVAFGQGTKLTVLGGGGSGGGGSGGGGSEVQLVESGGGLVQPGGSLRLSCTASGFSLNYYGMGWVRQAPGKGLEWIGIIAGDRDTYYATWAKGRFTISRDNSKNTVYLQMNSLRAEDTAVYFCARGSYSSTWDGAFDLWGPGTLVTVSSTTTPAPRPPTPAPTIASQPLSLRPEACRPAAGGAVHTRGLDFACDIYIWAPLAGTCGVLLLSLVITLYCKRGRKKLLYIFKQPFMRPVQTTQEEDGCSCRFPEEEEGGCELRVKFSRSADAPAYQQGQNQLYNELNLGRREEYDVLDKRRGRDPEMGGKPRRKNPQEGLYNELQKDKMAEAYSEIGMKGERRRGKGHDGLYQGLSTATKDTYDALHMQALPPR

Molecular target: T1, BCMA on MM.1S cells (human multiple myeloma cells that endogenously express BCMA) (human, UniProt Q02223 1-184)
T1 sequence (looked up): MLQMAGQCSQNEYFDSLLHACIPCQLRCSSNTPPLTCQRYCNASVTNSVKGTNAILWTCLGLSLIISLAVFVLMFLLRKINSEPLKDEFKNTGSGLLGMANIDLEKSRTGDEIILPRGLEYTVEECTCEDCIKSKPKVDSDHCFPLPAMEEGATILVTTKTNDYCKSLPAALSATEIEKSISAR
Test: cell-based or functional assay

Row | Binder | killing of target cell (luciferase activity in target cell, effector/target 1:4, 48 hours) [%]
1 | B1 | 100
2 | B2 | 100
